{"source": "patent US20050182242A1", "about": "“Global analysis of protein activities using proteome chips” (priority 2001, published 2005)", "settings_in_all_cases": "liposome binding signal on yeast proteome chip, Cy3-streptavidin detection", "key": {"[1]": {"system": "phosphatidylcholine (PC) liposomes", "experiment": "Yeast proteome chip probed with PC liposomes", "from_the_text": "(§1) To identify PI-binding proteins in yeast, liposomes were used as probes because the liposome provides the most relevant physiological condition to assay the interactors. Six types of liposomes were used. Each contains phosphatidylcholine (“PC”) with 1% (w/w) N-(biotinoyl)-1,2-dihexadecanoyl-sn-glycero-3-phosphoethanolamine, triethylammonium salt (biotin DHPE). The biotinylated lipid serves as a label that can be detected by Cy3-streptavidin (21). In addition to PC, the five other liposomes contain either 5% (w/w) PI(3)P, PI(4)P, PI(3,4)P2, PI(4,5)P2, or PI(3,4,5)P3 (FIG. 3A).\n(§2) The protein-liposome interaction was assayed as follows. Appropriate amounts of each lipid in chloroform were mixed and dried under nitrogen. The lipid mixture was resuspended in TBS buffer by vortexing. The liposomes were created by sonication. Blocked proteome chips were washed three to five times in PBS buffer, and the extra liquid on the glass surface was removed by tapping the slides vertically on a KIMWIPE™. 200 μl of liposome solution was added to the proteome chip and immediately covered by a hydrophobic plastic cover slip (GRACE BIO-LAB™, USA). After trapped air bubbles were removed, the chip was incubated in a humidity chamber at RT for one hour. To remove the cover slip, the chip was immersed into large volume of PBS buffer (50 ml), so that the slip would float away. The chip was then moved to a second PBS bath (>50 ml) and washed 3×5 min with shaking at RT. After removing extra liquid on the surface of the chip, about 100 μl of Cy3 or Cy5 conjugated streptavidin (PIERCE™, USA; 1:2000 to 1:4000 dilution) was added to the surface and covered by a hydrophobic plastic cover slip (GRACE BIO-LABS™, USA). The chip was incubated for greater than 30 min in the dark at RT. The chip was then washed as described above. To completely remove the liquid on the chip, the chip was spun to dryness at 1500-2000 rpm for 5-10 min at RT.\n(§3) • 1. S. Fields, Y. Kohara, D. J. Lockhart, Proc. Natl. Acad. Sci. 96, 8825 (1999); A. Goffeau et al., Science 274, 563 (1996). • 2 P. Ross-Macdonald et al., Nature 402, 413 (1999); J. L., DeRisi, V. R. Iyer, P. O. Brown, Science 278, 680 (1997); E. A. Winzeler et al., Science 285, 901 (1999). P. Uetz et al., Nature 403, 623 (2000); T. Ito et al., Proc. Natl. Acad. Sci. USA. 97, 1143 (2000) • 3 H. Zhu, M. Snyder, Curr. Opin. Chem. Biol. 5, 40 (2001). • 4 M. R. Martzen et al., Science 286, 1153 (1999). • 5 H. Zhu et al., Nat. Genet. 26, 283 (2000). • 6 G. MacBeath, S. L. Schreiber, Science 289, 1760 (2000). • 7 A. Caveman, J. Cell Sci. 113, 3543 (2000). • 8 P. Arenkov et al., Anal. Biochem 278, 123 (2000). • 9 D. A. Mitchell, T. K. Marshall, R. J. Deschenes, Yeast 9, 715 (1993). The expression vector pEGH was created by inserting an RGS-HisX6 epitope tag between the GST gene and the polycloning site of pEG(KG). The yeast ORFs were cloned using the strategy described previously (5), except every step was done in a 96-well format. Plasmid DNAs confirmed by DNA sequencing were reintroduced into both yeast (Y258) and E. coli (DH5a). […] 0.1 mM calcium was present in buffers in all subsequent steps. The chip was washed three times with PBS at RT. Cy3-conjugated streptavidin (Jackson IR, USA) (1:5000 dilution) was added to the chip and incubated for 30 min at RT. After extensive washing, the chip was spun dry and scanned using a microarray scanner; the data was subsequently acquired with the GENEPIX™ array densitometry software (Axon, USA). • 12 S. S. Hook, A. R. Means, Annu. Rev. Pharmacol. Toxicol.41, 471 (2001). • 13 M. S. Cyert, R. Kunisawa, D. Kaim, J. Thorner, Proc. Natl. Acad. Sci. USA 88, 7376 (1991). • 14 D. A. Stirling, K. A. Welch, M. J. Stark, EMBO J. 13, 4329 (1994). • 15 F. Bohl, Kruse, EMBO J. 19, 5514 (2000); E. Bertrand et al., Mol. Cell 2, 437 (1998). • 16 D. C. Winter, E. Y. Choe, R. Li, Proc. Nat. Acad Sci. USA 96, 7288 (1999). • 17 C."}, "PI(3,4,5)P3 liposomes": {"system": "PI(3,4,5)P3 liposomes", "experiment": "Yeast proteome chip probed with PI(3,4,5)P3 liposomes", "from_the_text": "as §1, §2, §3"}, "PI(3,4)P2 liposomes": {"system": "PI(3,4)P2 liposomes", "experiment": "Yeast proteome chip probed with PI(3,4)P2 liposomes", "from_the_text": "as §1, §2, §3"}, "PI(4,5)P2 liposomes": {"system": "PI(4,5)P2 liposomes", "experiment": "Yeast proteome chip probed with PI(4,5)P2 liposomes", "from_the_text": "as §1, §2, §3"}, "PI(4)P liposomes": {"system": "PI(4)P liposomes", "experiment": "Yeast proteome chip probed with PI(4)P liposomes", "from_the_text": "as §1, §2, §3"}}}
{"molecule": "WRS1: yeast GST-HisX6 fusion protein on proteome chip (protein, UniProt Q12109 1-432, looked up, GST-HisX6 tag, yeast GST-HisX6 fusion protein on proteome chip) Tryptophan--tRNA ligase, …: MSNDETVEKVTQQVSELKSTDVKEQVVTPWDVEGGVDEQGRAQNIDYDKLIKQFGTKPVNEETLKRFKQVTGREPHHFLRKGLFFSERDFTKILDLYEQGKPFFLYTGRGPSSDSMHLGHMIPFVFTKWLQEVFDVPLVIELTDDEKFLFKHKLTINDVKNFARENAKDIIAVGFDPKNTFIFSDLQYMGGAFYETVVRVSRQITGSTAKAVFGFNDSDCIGKFHFASIQIATAFPSSFPNVLGLPDKTPCLIPCAIDQDPYFRVCRDVADKLKYSKPALLHSRFFPALQGSTTKMSASDDTTAIFMTDTPKQIQKKINKYAFSGGQVSADLHRELGGNPDVDVAYQYLSFFKDDDVFLKECYDKYKSGELLSGEMKKLCIETLQEFVKAFQERRAQVDEETLDKFMVPHKLVWGEKERLVAPKPKTKQEKK", "values": [{"measurement": "PC", "setting": "[1]", "value": 62.51}, {"measurement": "PI(3, 4, 5)P3", "setting": "PI(3,4,5)P3 liposomes", "value": 51.08}, {"measurement": "PI(3, 4)P2", "setting": "PI(3,4)P2 liposomes", "value": 63.10}, {"measurement": "PI(4, 5)P2", "setting": "PI(4,5)P2 liposomes", "value": 21.56}, {"measurement": "PI(4)P", "setting": "PI(4)P liposomes", "value": 4.57}]}
{"molecule": "SUN4: yeast GST-HisX6 fusion protein on proteome chip (protein, UniProt P53616 25-420, looked up, GST-His6 tag, yeast GST-HisX6 fusion protein on proteome chip) Probable secreted …: YAADIDTGCTTTAHGSHQHKRAVAVTYVYETVTVDKNGQTVTPTSTEASSTVASTTTLISESSVTKSSSKVASSSESTEQIATTSSSAQTTLTSSETSTSESSVPISTSGSASTSSAASSATGSIYGDLADFSGPYEKFEDGTIPCGQFPSGQGVIPISWLDEGGWSGVENTDTSTGGSCKEGSYCSYACQPGMSKTQWPSDQPSDGRSIGGLLCKDGYLYRSNTDTDYLCEWGVDAAYVVSELSNDVAICRTDYPGTENMVIPTYVQAGDSLPLTVVDQDTYYTWQGLKTSAQYYVNNAGISVEDACVWGSSSSGVGNWAPLNFGAGSSDGVAYLSLIPNPNNGNALNFNVKIVAADDSSTVNGECIYENGSFSGGSDGCTVSVTAGKAKFVLYN", "values": [{"measurement": "PC", "setting": "[1]", "value": 69.55}, {"measurement": "PI(3, 4, 5)P3", "setting": "PI(3,4,5)P3 liposomes", "value": 33.19}, {"measurement": "PI(3, 4)P2", "setting": "PI(3,4)P2 liposomes", "value": 20.88}, {"measurement": "PI(4, 5)P2", "setting": "PI(4,5)P2 liposomes", "value": 66.41}, {"measurement": "PI(4)P", "setting": "PI(4)P liposomes", "value": 60.75}]}
{"molecule": "DPS1: yeast GST-HisX6 fusion protein on proteome chip (protein, UniProt P04802 2-557, looked up, GST-His6 fusion tag, yeast GST-HisX6 fusion protein on proteome chip) Aspartate--tRNA ligase, …: SQDENIVKAVEESAEPAQVILGEDGKPLSKKALKKLQKEQEKQRKKEERALQLEAEREAREKKAAAEDTAKDNYGKLPLIQSRDSDRTGQKRVKFVDLDEAKDSDKEVLFRARVHNTRQQGATLAFLTLRQQASLIQGLVKANKEGTISKNMVKWAGSLNLESIVLVRGIVKKVDEPIKSATVQNLEIHITKIYTISETPEALPILLEDASRSEAEAEAAGLPVVNLDTRLDYRVIDLRTVTNQAIFRIQAGVCELFREYLATKKFTEVHTPKLLGAPSEGGSSVFEVTYFKGKAYLAQSPQFNKQQLIVADFERVYEIGPVFRAENSNTHRHMTEFTGLDMEMAFEEHYHEVLDTLSELFVFIFSELPKRFAHEIELVRKQYPVEEFKLPKDGKMVRLTYKEGIEMLRAAGKEIGDFEDLSTENEKFLGKLVRDKYDTDFYILDKFPLEIRPFYTMPDPANPKYSNSYDFFMRGEEILSGAQRIHDHALLQERMKAHGLSPEDPGLKDYCDGFSYGCPPHAGGGIGLERVVMFYLDLKNIRRASLFPRDPKRLRP", "values": [{"measurement": "PC", "setting": "[1]", "value": 62.22}, {"measurement": "PI(3, 4, 5)P3", "setting": "PI(3,4,5)P3 liposomes", "value": 13.05}, {"measurement": "PI(3, 4)P2", "setting": "PI(3,4)P2 liposomes", "value": 25.12}, {"measurement": "PI(4, 5)P2", "setting": "PI(4,5)P2 liposomes", "value": 41.81}, {"measurement": "PI(4)P", "setting": "PI(4)P liposomes", "value": 99.29}]}
{"molecule": "PKR1: yeast GST-HisX6 fusion protein on proteome chip (protein, UniProt Q03880 1-122, looked up, GST-His6 tag, yeast GST-HisX6 fusion protein on proteome chip) V-type ATPase assembly factor …: MANFFVRLWESVFEPGTSPQLIIATHVSFVALLLTLIWLIYATNGNIHFYALFCISLLLWITVIWFINELSHVKLKDNDELDKDANKKDDSAIKEDSEDKQESGKSTSTARRTQAQSRSRKA", "values": [{"measurement": "PC", "setting": "[1]", "value": 61.63}, {"measurement": "PI(3, 4, 5)P3", "setting": "PI(3,4,5)P3 liposomes", "value": 15.75}, {"measurement": "PI(3, 4)P2", "setting": "PI(3,4)P2 liposomes", "value": 37.52}, {"measurement": "PI(4, 5)P2", "setting": "PI(4,5)P2 liposomes", "value": 87.75}, {"measurement": "PI(4)P", "setting": "PI(4)P liposomes", "value": 61.40}]}
{"molecule": "SXM1: yeast GST-HisX6 fusion protein on proteome chip (protein, UniProt Q04175 1-944, looked up, GST-His6 tag, yeast GST-HisX6 fusion protein on proteome chip) Importin beta SMX1: MVQEQAILSCIEQTMVADAKIIKEAEQQLFEFQKQPGFTSFLLNIVSDDNFALNVRLSSAIYLKNKIHRSWDTKREDGIKADEKLSIKERLIETLVKNCENNHIRPILTETINGILVGQEDWDLAPIIKNLLSSGDASYIYPGLLLLFQLCKAHRWDMVGSRDYIDSVIEELFPIVEGIASNIGSQTDYRSNEILYLILKSFKYACLNNLPQYFSQPERIMSWVQLHLYLCSKPLPVEVMELDPADRSLDKRVKVNKWGFGNLNRFLQRYNKITKAITKEFIDYIFNTIVPIILREFFKDIEAWGNNSLWLSDSSLYFLISFLEKCVTIDQLYPLIEPHLQIIFENVIFPCLCANEQSIELLEDDQEEYTRRYFDINREGSTPDAASADFIFLIGSKRPEKLNNILPFINDIFTRFDANSSDINMAFKEEGALRTLSNLFSFIDEPSVLENIFGHFIVPLLSQDKYMFLVARSLETIALYSEEFKDMNILSQLFELTYTNFLNSNVLPVQIEAADAIKCLIVSNPQIHPAVSAHVPGMMEKLLKLSKIFEIDILSEVMEALVERFSDELSPFAKDLASNLVEQFLRIAQALVENPSETYSASDQEQEIQASGLLQTMTTMVMSMNKVPLIESLAPVVKFVVLHAQISFITEAVDLLDALTISSHLLYNQIAPPIWELLHDILDSFQTYAMDYFEAYSIFFETIVMTGFPQDQTYVQPLLEILSAKLESEVDYDIEHVMQILMYFALSMRDIPLFSKAIKVSTNDELGLDSKCIVKLGLANLFAKPIETLQIMENEGFTINFFTNWFNEKFYSVFAIKLQVLVILTLLKMPEVPNSVSPLLNNLTNKLVELTLSLPKAIRNRDAVTEGKSLEGDLTPEEEEEYFIECDDDMKETVLDQINVFQEVHTFFKNLQNEDAGKYEKIINYLDESKRDSLQVILEFVSQH", "values": [{"measurement": "PC", "setting": "[1]", "value": 51.95}, {"measurement": "PI(3, 4, 5)P3", "setting": "PI(3,4,5)P3 liposomes", "value": 23.40}, {"measurement": "PI(3, 4)P2", "setting": "PI(3,4)P2 liposomes", "value": 19.15}, {"measurement": "PI(4, 5)P2", "setting": "PI(4,5)P2 liposomes", "value": 27.22}, {"measurement": "PI(4)P", "setting": "PI(4)P liposomes", "value": 30.48}]}
